Primed or numbered codes have the meaning given here. Ends that are not written are not given here. FITC′ = not defined here
Legend:
HEK293 cells = assay: Introduction of FITC-labelled PTD-DBMP into HEK293 cells (fluorescence microscopy); type: cell-based, human; conditions: 1 μM or 4 μM peptide, 3 hours, FIG. 21
Procedure: To confirm the introduction of two PTD-DBMP into cells, HEK293 cells were seeded and incubated on gelatin-coated glasses for one day, and then 1 μM or 4 μM peptide were treated on the cells. After 3 hours, the cells were washed with PBS, and then fixed using fixative solution (99% methanol and 1% formaldehyde). Nucleus of cells were counterstained using DAPI, and the cells were observed using ECLIPSE TE2000-U microscope.

Wnt/β-catenin signaling = assay: β-catenin immunoblotting of PTD-DBMP treated HEK293 cells; type: cell-based, human; conditions: 1 μM or 4 μM PTD-DBMP, 12 hours, FIG. 22
Procedure: To investigate the effect of PTD-DBMP in the cells, HEK293 cells were incubated with 1 μM or 4 μM PTD-DBMP for 12 hours, and then the cell lysates were subjected into immunoblotting using anti-β-catenin, and anti-α-tubulin antibodies.

[1] = test system: Wnt/β-catenin pathway in MC3T3E1 cells; assay: Immunocytochemistry of PTD-DBMP treated MC3T3E1 cells; type: cell-based; conditions: 5 μM or 10 μM, 12 hours, FIG. 23
Procedure: PTD-DBMP (SEQ ID NO: 26) was treated into MC3T3E1 cells, and then the introduction and effect of PTD-DBMP were monitored by immunocytochemistry analyses. MC3T3E1 cells were incubated on gelatin-coated glasses for 1 day, and then 5 μM or 10 μM PTD-DBMP were treated on the incubated cells for 12 hours. The PTD-DBMP-treated cells were washed with PBS, and then fixed using a fixative solution (99% methanol and 1% formaldehyde). The fixed cells were permeabilized with 0.2% saponin solution, and then incubated with anti-β-catenin antibody (home-made; 1:100). The cells were incubated with Alexafluor 488 conjugated secondary antibody, and then the nucleus of cells were counterstained with DAPI.

Wnt/β-catenin pathway [2] = assay: pTOPFLASH/pFOPFLASH luciferase reporter assay in MC3T3E1 cells; type: cell-based; conditions: 5 μM PTD-DBMP or 100 ng/ml Wnt3a, 12 hours, FIG. 24
Procedure: To investigate the effect of PTD-DBMP treatment on Wnt/β-catenin pathway of MC3T3E1 cells, 0.5 μg of pTOPFLASH or pFOPFLASH with 50 ng of pCMV-β-Gal was transfected into the cells. After 12 hours, the transfected cells were treated with 100 ng/ml Wnt3a, or 5 μM PTD-DBMP, and then incubated for 12 hours. Then the cells were washed with PBS, and then lysed in Lysis Buffer (Promega). The cell lysates were mixed with Luciferase Substrate (Promega) to monitor the luciferase activities.

[3] = test system: MC3T3E1 cells (osteoblast differentiation); assay: RT-PCR of osteoblast differentiation markers in MC3T3E1 cells; type: cell-based; conditions: 10 μM PTD-DBMP or 100 ng/ml Wnt3a, 2 and 4 days, FIG. 25
Procedure: To study the effect of PTD-DBMP on osteoblast differentiation, 100 ng/ml Wnt3a, or 10 μM PTD-DBMP was treated on MC3T3E1 cells. The cells were harvested after 2, and 4 days later, and then subjected into RT-PCR to monitor the amounts of ALP, Fgf18, RANKL, and HPRT mRNAs. The mRNA amounts of osteoblast differentiation markers (ALP, Fgf18, RANKL) were increased by PTD-DBMP treatment, as well as by Wnt3a treatment (FIG. 25).

β-catenin = assay: Idbf overexpression or knock-down in HEK293 cells: β-catenin immunoblot and TOPFLASH reporter; type: cell-based, human; conditions: FIG. 5; for transcriptional activity of β-catenin: pTOPFLASH/pFOPFLASH luciferase; for protein level of β-catenin: transfection, immunoblotting
Procedure: 0.9 kb PCR product was restricted with XbaI and BamHI, and subcloned into a pcDNA3.1/myc His(−) vector (Invitrogen) (pcDNA3.1-Idbf-Myc). Idbf overexpression was performed by transfection of pcDNA3.1-Idbf-Myc into HEK293 cells using Lipofectamine plus reagent (Invitrogen) as the manufacturers' instruments.
Idbf knock-down was performed by transfection of Idbf siRNA into HEK293 cells using Lipofectamine plus reagent (Invitrogen) as the manufacturers' instruments. Idbf siRNA was synthesized using Silence™ siRNA Construction Kit (Ambion). To elevate the efficiency of knock-down, the mixture of two kinds of siRNAs, which are targeting different site of Idbf mRNA, were used.
For immunoblotting, cells were harvested, and lysed in RIPA buffer (50 mM Tris pH 7.5, 150 mM NaCl, 1 mM EDTA, and 1% Triton X-100). All chemicals were purchased from Sigma-Aldrich.
To detect proteins, whole cell lysates or immunoprecipitants were subjected into immunoblotting using anti-β-catenin, anti-Myc, or anti-α-tubulin antibodies. To monitor the transcriptional activity of β-catenin, 0.5 μg of pTOPFLASH or pFOPFLASH (kind gill from Dr. B. Vogelstein and Dr. K. Kinzler in Johns Hopkins Oncology Center, Baltimore, Md.) with 50 ng of pCMV-β-Gal was transfected into HEK293 cells. The luciferease activities, which indicate the transcriptional activity of β-catenin, were normalized by β-galactosidase activities, which show the efficiency of transfection. […] Oppositely, the protein level of β-catenin and its transcriptional activity were increased by Idbf knock-down (FIG. 5B). Error bars in FIG. 5 indicates standard deviation. WCL and IP are abbreviations of whole cell lysate and immunoprecipitation, respectively.

[4] = test system: Wnt/β-catenin pathway and osteoblast differentiation in MC3T3E1 cells; assay: Idbf overexpression and Wnt3a treatment in MC3T3E1 cells, RT-PCR; type: cell-based; conditions: FIG. 17C; for ALP and Fgf18 mRNA: 100 ng/ml Wnt3a 12 hours, or ascorbic acid and β-glycerol-phosphate 2 days
Procedure: Idbf was overexpressed in MC3T3E1 cells to investigate the function of Idbf in Wnt/β-catenin pathway and osteoblast differentiation. MC3T3E1 cells were transfected with pcDNA3.1 or pcDNA3.1-Idbf-Myc, and then transfected cells were incubated in α-MEM media containing 100 ng/ml Wnt3a for 12 hours or in α-MEM containing 50 mg/l ascorbic acid and 10 mM […] for 2 days. Wnt3a treatment results in mRNA increments of ALP and Fgf18, which were more significant than ascorbic acid and β-glycerol-phosphate treatment (FIG. 17C). […] However, the common target genes of Wnt/β-catenin pathway, cyclin D and c-myc were not regulated by Wnt3a or ascorbic acid and β-glycerol-phosphate treatment (FIG. 17C).

Dvl-1 = target: T1, Dvl-1 (Mus musculus, UniProt P51141); assay: Idbf-Dvl-1 binding by immunoprecipitation with anti-Idbf antibody; conditions: with or without Wnt3a, FIG. 18B (MC3T3E1 osteoblast)
T1 construct: endogenous in cells; host or cells: MC3T3E1 osteoblasts
T1 sequence (P51141 1-695): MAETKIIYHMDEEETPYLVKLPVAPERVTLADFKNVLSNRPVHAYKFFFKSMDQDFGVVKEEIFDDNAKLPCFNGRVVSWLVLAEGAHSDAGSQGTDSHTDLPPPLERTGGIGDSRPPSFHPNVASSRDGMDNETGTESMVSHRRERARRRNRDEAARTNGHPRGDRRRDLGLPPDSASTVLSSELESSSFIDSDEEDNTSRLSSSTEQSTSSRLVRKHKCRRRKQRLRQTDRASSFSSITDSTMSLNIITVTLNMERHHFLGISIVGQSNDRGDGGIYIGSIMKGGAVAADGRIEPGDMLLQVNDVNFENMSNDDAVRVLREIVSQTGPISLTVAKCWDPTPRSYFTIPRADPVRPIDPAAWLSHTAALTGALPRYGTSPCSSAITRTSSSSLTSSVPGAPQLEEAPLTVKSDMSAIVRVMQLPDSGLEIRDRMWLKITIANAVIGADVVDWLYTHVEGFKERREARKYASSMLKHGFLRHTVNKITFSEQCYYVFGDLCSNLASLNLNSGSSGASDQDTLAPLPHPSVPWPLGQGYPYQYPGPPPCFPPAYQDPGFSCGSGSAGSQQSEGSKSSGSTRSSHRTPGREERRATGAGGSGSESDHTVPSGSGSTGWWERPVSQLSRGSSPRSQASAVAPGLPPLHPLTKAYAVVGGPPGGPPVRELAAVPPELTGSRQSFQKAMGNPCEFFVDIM
Source text: To investigate the importance of Idbf-Dvl-1 binding in Idbf function, a mutant of Idbf, in which Dvl binding minimal peptide (DBMP; RKTGHQICKFRKC, SEQ ID NO: 4) was removed, was produced (pcDNA3.1-Idbf-ΔDBMP-Myc).
To monitor Idbf-Dvl-1 binding, cell lysates were subjected into immunoprecipitation using anti-Idbf antibody. Whole cell lysates were subjected into immunoblotting to detect the amounts of proteins, including β-catenin, α-tubulin, and Dvl-1.

Wnt/β-catenin pathway [5] = assay: Wnt3a treatment and Idbf overexpression in HEK293 cells (reporter assay, Idbf-Dvl-1 binding); type: cell-based, human; conditions: for effect on Wnt/β-catenin pathway in HEK293 cells: 100 ng/ml Wnt3a 12 hours or 0.5 μg plasmid, FIG. 19
Procedure: Function of Idbf in Wnt/β-catenin pathway was also studied in HEK293 cells, which is a established human embryonic kidney cell-line. HEK293 cells were transfected with 0.5 μg pcDNA3.1 or pcDNA3.1-Idbf-Myc. For reporter assay, 0.5 μg pTOPFLASH or pFOPFLASH with 50 ng pCMV-β-Gal was co-transfected. The transfeced cells were incubated in α-MEM with or without 100 ng/ml Wnt3a for 12 hours. […] The enhancement of Idbf-Dvl-1 binding by Wnt3a treatment was also not observed (FIG. 20).

Molecule: PTD-DBMP: PTD and glycine linker on the amino terminus of DBMP, FITC on the carboxyl terminus; two peptides in section 7, SEQ ID NO: 26 in section 8 (RRRRRRRRGGGGRKTGHQICKFRKCK-{FITC′}; cysteine pairing not given here)
- introduction of peptide into cells (green fluorescence in nucleus and cytosol) (HEK293 cells): successfully introduced into the cells
- amount of β-catenin (Wnt/β-catenin signaling): increased
- activation of Wnt/β-catenin pathway (β-catenin in nucleus) [1]: accumulation of β-catenin (red) in nucleus of the cells
- introduction of peptide into cells (green fluorescence by FITC on nucleus and cytosol) [1]: successfully introduced into the cells
- activation of Wnt/β-catenin pathway (luciferase activity normalized by β-galactosidase) (Wnt/β-catenin pathway [2]): as significant as the activation by Wnt3a treatment
- mRNA amounts of osteoblast differentiation markers (ALP, Fgf18, RANKL) [3]: increased

B1: Idbf: novel Dvl-binding protein (SEQ ID NO: 1), overexpressed by transfection of pcDNA3.1-Idbf-Myc (protein, listed as Homo sapiens)
chain: MSSLGGGSQDAGGSSSSSTNGSGGSGSSGPKAGAADKSAVVAAAAPASVADDTPPPERRNKSGIISEPLNKSLRRSRPLSHYSSFGSSGGSGGGSMMGGESADKATAAAAAASLLANGHDLAAAMAVDKSNPTSKHKSGAVASLLSKAERATELAAEGQLTLQQFAQSTEMLKRVVQEHLPLMSEAGAGLPDMEAVAGAEALNGQSDFPYLGAFPINPGLFIMTPAGVFLAESALHMAGLAEYPMQGELASAISSGKKKRKRCGMCAPCRRRINCEQCSSCRNRKTGHQICKFRKCEELKKKPSAALEKVMLPTGAAFRWFQ
modifications: Myc tag
- transcriptional activity of β-catenin (β-catenin): reduced
- protein level of β-catenin (β-catenin): reduced
- ALP and Fgf18 mRNA [4]: suppressed increment
- binding to Dvl-1 (Dvl-1): binds to Dvl-1 in Wnt3a-dependent manner
- effect on Wnt/β-catenin pathway in HEK293 cells (Wnt/β-catenin pathway [5]): very marginal

B2: Idbf siRNA: mixture of two siRNAs targeting different sites of Idbf mRNA (SEQ ID NO: 12-15) (nucleic acid)
chain 1: UUGUAGGAAUCGAAAGACUUU
chain 2: AGUCUUUCGAUUCCUACAAUU
chain 3: GCAGUUUGCGCAGUCCACAUU
chain 4: UGUGGACUGCGCAAACUGCUU
modifications: listed as RNA, chemistry not given here
- transcriptional activity of β-catenin (β-catenin): increased
- protein level of β-catenin (β-catenin): increased

B3: Wnt3a: Wnt ligand used at 100 ng/ml to activate the Wnt/β-catenin signaling pathway (protein, UniProt P56704 19-352, looked up)
Protein Wnt-3a: SYPIWWSLAVGPQYSSLGSQPILCASIPGLVPKQLRFCRNYVEIMPSVAEGIKIGIQECQHQFRGRRWNCTTVHDSLAIFGPVLDKATRESAFVHAIASAGVAFAVTRSCAEGTAAICGCSSRHQGSPGKGWKWGGCSEDIEFGGMVSREFADARENRPDARSAMNRHNNEAGRQAIASHMHLKCKCHGLSGSCEVKTCWWSQPDFRAIGDFLKDKYDSASEMVVEKHRESRGWVETLRPRYTYFKVPTERDLVYYEASPNFCEPNPETGSFGTRDRTCNVSSHGIDGCDLLCCGRGHNARAERRREKCRCVFHWCCYVSCQECTRVYDVHTCK
- activation of Wnt/β-catenin pathway (luciferase activity normalized by β-galactosidase) (Wnt/β-catenin pathway [2]): activation
- mRNA amounts of osteoblast differentiation markers (ALP, Fgf18, RANKL) [3]: increased
- cyclin D and c-myc (common target genes of Wnt/β-catenin pathway) ([4]; 100 ng/ml Wnt3a 12 hours): not regulated
- ALP and Fgf18 mRNA [4]: increments
- effect on Wnt/β-catenin pathway in HEK293 cells (Wnt/β-catenin pathway [5]): very marginal
- enhancement of Idbf-Dvl-1 binding (Wnt/β-catenin pathway [5]; Wnt3a treatment, FIG. 20): not observed

Reference: patent US9150630B2, “Use of Idbf” (Industry-Academic Cooperation Foundation, Yonsei University, priority 2008, dated 2015)
